Experimental data: publication PMC6648351 (Nucleic Acids Research, 2019)
Positions count from the first letter of the chain named. In names and notes the source's numbering stands.

B1: gp577 mutant D92A (enzyme, Acanthamoeba polyphaga mimivirus, UniProt A0A0G2YDL0 1-470, looked up)
chain: MAEDKIEAYNKSITRTKYFKMDDAINSPICSKTVFIIANERITKENRIGRYYTVFPSFKKFLKKRDSYPHCHEIIIDHINNKTNIAGRLVFAFDIKITDSSILKDTGLIDKNDNQPIMFNSKTLSITKIPLNFKQQIENTIIETIDQYFHDIDKTILEFIWSTSQNPNKFSKHLTVKNLYFDDWITMSKLFYKLFCKVWDNQYYWISSKDLVDSQIVRNKGSLRMVGSTKINGYPLVFDNKNHTLPDSLIRIYFRNHREKEQLVTRNNINKDIINQFLESNDDIEHHRSIDIIDRHFTKIRNPSYDPIIYQKAFEIYDAIHPNIFKMGKVNGKYLTLIRLKPHKCFLSNKFHEQENAYLYISMSDTTYKISFGCYRFCSKKKMEYLGSLIQGNLMKNSPYIDDTDGTTKKHDFNINIKFLSDSDDESINAPNNIKSLESIKSSKSKKQLKSSKSKKPIKHTKTKNIYVET
B2: gp577 mutant D151A (enzyme, Acanthamoeba polyphaga mimivirus, UniProt A0A0G2YDL0 1-470, looked up)
chain: B1 chain with A92D, D151A
B3: gp577 mutant D213A (enzyme, Acanthamoeba polyphaga mimivirus, UniProt A0A0G2YDL0 1-470, looked up)
chain: B1 chain with A92D, D213A
B4: gp577 mutant D239A (enzyme, Acanthamoeba polyphaga mimivirus, UniProt A0A0G2YDL0 1-470, looked up)
chain: B1 chain with A92D, D239A
B5: gp577 mutant H173A (enzyme, Acanthamoeba polyphaga mimivirus, UniProt A0A0G2YDL0 1-470, looked up)
chain: B1 chain with A92D, H173A

Biological target: the molecule itself
Test: SEC

Protein	stoichiometry N
B1	2
B2	2
B3	2
B4	2
B5	2
